Patent US9526786B2, “Thermostabilization of proteins” (The Trustee of Columbia University in the City of New York, priority 2007, dated 2016)

Assays:
[1] = system: cocaine-induced lethality; test: In vivo potency of protection against cocaine-induced lethality; design: species or system NIH-Swiss mice; settings: i.v. pretreatment 1 min prior to i.p. cocaine
[2] = Michaelis-Menten kinetics of cocaine hydrolysis (absorbance at 240 nm); type: biochemical; settings: cocaine
Experimental: (§1) The initial rates (of decay) were determined by following the change in the intrinsic absorbance of cocaine at 240 nm (6700 M^1 cm^1)(Xie et al., 1999) using a SpectraMax Plus 384 UV plate reader (Molecular Devices, Sunnyvale, Calif.) using SOFTmax Pro software (Version 3.1.2). The reaction was initiated by adding 100 μL of a 2× enzyme solution (100 mM phosphate buffer, pH 7.4 and 300 mM NaCl) to 100 μL of a 2× cocaine solution (50 μg/mL enzyme, 100 mM Phosphate Buffer, pH 7.4 and 300 mM NaCl). All assays were performed with 100 μM DTT unless indicated otherwise. Final cocaine concentrations were as follows: 125, 62.5, 31.25, 15.63, 7.81, 3.91, 1.95, and 0.977 μM. Vmax and Km values were calculated using Prism (GraphPad Software, San Diego). For stability measurements, wild type and mutant enzymes were diluted to 2× concentration and incubated at 37° C. for the times indicated. At the end of each time point, an aliquot was removed and kinetic behavior was observed as outlined above.
(§2) In vitro kinetic assays. […] Initial rates were then used to determine Michaelis-Menten parameters. To assess thermal stability, enzyme preparations were preincubated at 37° C. for various lengths of time, prior to measurement of residual activities (Table 1 and FIG. 23).
Determination of Catalytic Efficiency. To determine the catalytic activity a spectrophometric assay was performed. Samples of L169K/G173Q CocE were added to a 96-well UV permeable plate containing increasing cocaine concentrations (0.5, 2.5, 5, 12.5, 25, 50, 100, and 150 μM) to give a final concentration of 10 ng/ml CocE in a final volume of 200 μl. The change in absorbance at 240 nm was measured over 20 minutes, with readings every 10 seconds, by a SpectraMax Plus 384 UV plate reader (Molecular Devices, Sunnyvale, Calif.) using SOFTmax Pro software (Version 3.1.2). The change in absorbance was converted to the change in concentration and furthermore the rate of decay per mole enzyme is determined (Kcat). Kcat and Km of the enzyme are determined using Prism (GraphPad software, San Diego).

[3] = system: cocaine-induced lethality; test: In vivo duration of protection against cocaine-induced lethality; design: species or system NIH-Swiss mice; settings: 1 mg i.v.; cocaine 180 mg/kg i.p.
Experimental: In vivo protection against cocaine lethality. Male NIH-Swiss mice (25-32 g) were obtained from Harlan Inc. (Indianapolis, Ind.) and were housed in groups of 6 mice per cage. All mice were allowed ad libitum access to food and water, and were maintained on a 12-h light-dark cycle with lights on at 06.30 AM in a room kept at a temperature of 21-22° C. Experiments were performed in accordance with the Guide for the Care and Use of Laboratory Animals as adopted and promulgated by the National Institutes of Health. The experimental protocols were approved by the University Committee on the Use and Care of Animals at the University of Michigan.
Cocaine-induced toxicity was characterized by the occurrence of lethality, as defined by the cessation of observed movement and respiration. Mice were placed individually in Plexiglas observation chambers (16×28×20 cm high) to be habituated for 15 min before drug administration. Following intra-peritoneal (i.p.) cocaine administration, the mouse was immediately placed individually in the same chamber for observation. The presence or absence of lethality was recorded for 60 min following cocaine administration. The mouse was placed in a small restraint chamber (Outer tube diameter: 30 mm; Inner tube diameter: 24 mm) that left the tail exposed. The tail was cleansed with an alcohol wipe and a 30G1/2 precision glide needle (Fisher Scientific, Pittsburgh, Pa.) was inserted into one of the side veins for infusion. The i.v. injection volume of CocE or CocE mutant was 0.2 mL per mouse. Sterile gauze and pressure were applied to the injection site to staunch the bleeding.
Lethality was monitored following injection at 1, 5, 10, or 30 min, or 1, 2, 3, 4, 5 hours after enzyme administration. Each treatment used 8 mice to assess the percent of lethality (i.e., protection) in mice pretreated with a single dose of an esterase at a single time point.
These values were used to compare the degree of rightward shifts of cocaine's dose-response curve in the absence or presence of the enzyme pretreatment. In the time course study, a time point for duration of protection (i.e., 50% of lethality) was estimated by using each time course curve crossing 50% occurrence of lethality.
Evaluation of in vivo half life. CocE is administered IV to the tail vein in a volume of 0.2 ml. Animals are challenged with 180 mg/kg cocaine delivered intraperitoneally at a given time after CocE administration.

[4] = mouse, in vivo; cited from earlier work
[5] = Temperature-dependent decay in esterase activity (30 min pre-incubation); type: biochemical
Experimental: FIG. 26 is a graph showing temperature-dependent decay in esterase activity. 50 ng/ml wild-type CocE and the mutants were pre-incubated for 30 min at temperatures indicated (° C.) and activity measured (Xie et al., 1999). The activity of each mutant remaining (as a percentage of the maximal activity, Vmax, without preincubation) following pre-incubation are illustrated. Wild-type CocE (open bars) appears to inactivate between 30-35° C. whereas T172R/G173Q (shaded bars) and L169K (solid) both display enhance thermal stability (inactivation at 40-45° C.).
To test whether the improved enzymatic stability at 37° C. represents improved thermal stability of the protein fold, the capacity of the CocE at progressively higher temperatures were assessed (FIG. 26). The activity of wt CocE plummets precipitously after 30 min at approximately 30-35° C. Both L169K and T172R/G173Q each are inactivated at a higher temperature (40-45° C.). Circular dichroism analysis (near UV analysis) at varying temperatures, comparing wt-CocE and T172R/G173Q have melting temperatures in concordance with the loss of catalytic activity.

[6] = Circular dichroism melting temperature of CocE proteins alone; type: physicochemical; settings: circular dichroism, enzyme alone
Experimental: Further characterization of the stability of wild type (WT) CocE and thermostable mutants was performed through circular dichroism, which detects small changes in protein conformation and structure. Analysis by repeated CD measurements at increasing temperatures allows analysis of the thermodynamics and melting temperature (TM) of the protein, so long as the melting is reversible (i.e. the protein resumes it's original conformation upon cooling). […] However CD is still of value in determining the temperature to unfolding.

[7] = 37° C., absence of DTT
Experimental: Analysis of CocE action on cocaine cleavage is performed by utilizing the spectroscopic properties of cocaine, which maximally absorbs light at a 240 nm wavelength. CocE activity is measured by monitoring for a decrease in signal at A240, using various concentrations of cocaine, and determining the initial rate of the decrease. From these values the Vmax of the enzyme can be determined. By pre-incubating the enzyme at 37° C. for various times before monitoring for activity, the half life of CocE at 37° C. can be calculated.
as §1, with “Final cocaine concentrations were as follows: 125, 62.5, 31.25, 15.63, 7.81, 3.91, 1.95, and 0.977 μM. Vmax and Km values were calculated using Prism (GraphPad Software, San Diego).” left out
as §2

B1: wt-CocE: cocaine esterase of Rhodococcus sp. MB 1, SEQ ID NO:1 (protein, listed as Rhodococcus sp.)
chain: MVDGNYSVASNVMVPMRDGVRLAVDLYRPDADGPVPVLLVRNPYDKFDVFAWSTQSTNWLEFVRDGYAVVIQDTRGLFASEGEFVPHVDDEADAEDTLSWILEQAWCDGNVGMFGVSYLGVTQWQAAVSGVGGLKAIAPSMASADLYRAPWYGPGGALSVEALLGWSALIGTGLITSRSDARPEDAADFVQLAAILNDVAGAASVTPLAEQPLLGRLIPWVIDQVVDHPDNDESWQSISLFERLGGLATPALITAGWYDGFVGESLRTFVAVKDNADARLVVGPWSHSNLTGRNADRKFGIAATYPIQEATTMHKAFFDRHLRGETDALAGVPKVRLFVMGIDEWRDETDWPLPDTAYTPFYLGGSGAANTSTGGGTLSTSISGTESADTYLYDPADPVPSLGGTLLFHNGDNGPADQRPIHDRDDVLCYSTEVLTDPVEVTGTVSARLFVSSSAVDTDFTAKLVDVFPDGRAIALCDGIVRMRYRETLVNPTLIEAGEIYEVAIDMLATSNVFLPGHRIMVQVSSSNFPKYDRNSNTGGVIAREQLEEMCTAVNRIHRGPEHPSHIVLPIIKR
[1]
  protection against cocaine-induced lethality: protected
[2]
  Kcat(mol · s^−1 · mol^−1): 2323 mol · s^−1 · mol^−1
[3]
  LT50, pretreatment time to 50% lethality: approximately 14 min
[4]
  effective half-life in the blood stream: ~10 min
[5]
  temperature of inactivation: 30-35 °C
[6]
  melting temperature: approximately 39 °C
[7]
  half-time of inactivation, τinact: approximately 25 min
